Data set [1] has as its system RSV pre-F antibody (3C12). The data set is described as follows: Binding of epitope Φ of RSV F antigen mutants by flow cytometry. As to conditions: for RSV pre-F antibody (3C12) Epitope Φ (%) binding rate: flow cytometry; for Φ/II (%): ratio of epitope Φ (3C12) to epitope II (11A9) binding rate. The procedure, abridged: (§1)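 293T cells were transfected with mRNA-LNP (300 ng mRNA) encoding the RSV F mutants and harvested after 16 h. Cells were stained with fluorescent 3C12 (pre-F-specific epitope Φ) or 11A9 (epitope II, pre-F and post-F) for 2 h at 4 °C in the dark, then washed and read by flow cytometry on 1×10^4 cells per measurement.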

Data set [2] concerns RSV F antibody (11A9). The data set is described as follows: Binding of epitope II of RSV F antigen mutants by flow cytometry. The settings on record: epitope II, antibody 11A9. In a few lines:
as §1

Data set [3] has as its system RSV pre-F antibody (3C12). Type of data set: physicochemical. As to conditions: ELISA binding to 3C12; for Stress resistance parameter, Osmotic pressure (mM) 3000: high osmotic pressure 3000 mM; for Stress resistance parameter, Osmotic pressure (mM) 3000 / Stress resistance parameter, Osmotic pressure (mM) 10: room temperature; for Stress resistance parameter, Osmotic pressure (mM) 3000 / Stress resistance parameter, Osmotic pressure (mM) 10 / Stress resistance parameter, pH 3.5 / Stress resistance parameter, pH 10: 60 min; for Stress resistance parameter, Temperature (° C.) 50: incubation at 50° C. for 60 min; for Stress resistance parameter, Osmotic pressure (mM) 10: low osmotic pressure 10 mM; for Stress resistance parameter, pH 3.5: pH 3.5, room temperature; for Stress resistance parameter, pH 10: pH 10, room temperature; for Stress resistance parameter, Temperature (° C.) 4: storage at 4° C. for one week. The text has this:
To investigate the stability of the RSV F antigen mutants under different pH, temperature, osmotic pressure and other conditions, the mutants were subjected to stress tests under different treatment conditions in this example.
• 293T cells (purchased from ATCC cell bank); • Primary antibody: RSV pre-F antibody (3C12), epitope Φ (purchased from Suzhou Novoprotein Scientific Co., Ltd. (hereinafter referred to as Novoprotein), Cat. No.: DA101); • Standard: RSV pre-F trimer protein (Novoprotein, Cat. No.: DRA230); • Secondary antibody: peroxidase AffiniPure goat anti-human IgG (H+L) (purchased from Yeasen Biotechnology (Shanghai) Co., Ltd. (hereinafter referred to as Yeasen), Cat. No.: N/A); • Experimental group: mRNA vaccines after screening in Example 4;
Coating: A 96-well microplate was coated with a working solution and incubated at 2 to 8° C. for 16 to 20 h.
Plate washing: Phosphate buffered saline PBST was added to each well, and the plate was washed 5 times using a plate washer and patted dry on absorbent paper.
Blocking: After a blocking solution was added, the […] were placed on a constant temperature microplate shaker and incubated at 400 rpm for 1.5 h at 37° C.
Plate washing: PBST was added to each well, and the plate was washed 5 times using a plate washer and patted dry on absorbent paper.
Primary antibody incubation: A primary antibody dilution was added to each well, and the plate was sealed with a sealing film, and then incubated at 400 rpm for 1.5 h at 37° C.
Secondary antibody incubation: A secondary antibody dilution was added to each well, and the plate was sealed with a sealing film, and then incubated at 400 rpm for 45 min at 37° C.
Color development: A chromogenic solution was added, and the plate was sealed with a sealing film, and then placed on a constant temperature microplate shaker and incubated at 400 rpm for 25 min at 37° C.
Reaction stopping: After the color development was completed, a stop buffer was added at […] to the microplate to stop the reaction.
Plate reading: Absorbance values (OD values) were read within 5 min using a multimode microplate reader, with dual wavelengths of 450 nm and 630 nm set.
In this example, stability screening of the mutants through different treatment conditions was defined as a stress test, including storage at 4° C. for one week; incubation at 50° C. for 60 min; treatment at room temperature under low osmotic pressure and high osmotic pressure conditions for 60 min; treatment at room temperature under acid and base conditions for 60 min. The binding of the mutants to the RSV pre-F antibody (3C12) recognizing the epitope Φ was detected by ELISA.

B1: YK-RSV-035 (protein)
chain: QCITEEFYQSTCSAVSKGYLGALRTGWYTSVITIELSNIKENKCNGTDAKVKLIKQELDKYKNAVTDLQLLMQSTPATGSGSAIASGVAVSKVLHLEGEVNKIKSALLSTNKAVVSLSNGVSVLTFKVLDLKNYIDKQLLPILNKQSCSIPNIETVIEFQQKNNRLLEITREFSVNAGVTTPVSTYMLTNSELLSLINDMPITNDQKKLMSNNVQIVRQQSYSIMSIIKEEVLAYVVQLPLYGVIDTPCWKLHTSPLCTTNTKEGSNICLTRTDRGWYCDNAGSVSFFPQAETCKVQSNRVFCDTMNSRTLPSEVNLCNVDIFNPKYDCKIMTSKTDVSSSVITSLGAIVSCYGKTKCTASNKNRGIIKTFSNGCDYVSNKGVDTVSVGNTLYYVNKCEGQSLYVKGEPIINFYDPLVFPSDEFDASISQVNEKINQSLAFIRKSDELLHNVNAGKSTTNIMITTIIIVIIVILLSLIAVGLLLY
Turning to B1, in data set [1], the “RSV pre-F antibody (3C12) Epitope Φ (%) binding rate” value turned out to be 79.6% and the “Φ/II (%)” value was 91.4%. Moreover, the “RSV F antibody (11A9) Epitope II (%) binding rate” value (shortened to “RSV F antibody … (%) binding rate”) in data set [2] turned out to be 87.1%. For the same molecule, in data set [3], the “Stress resistance parameter, Osmotic pressure (mM) 3000” value came out at 0.21 ± 0.06; the “Stress resistance parameter, Temperature (° C.) 50” value was determined as 0.39 ± 0.02; the “Stress resistance parameter, Osmotic pressure (mM) 10” value (“Stress resistance parameter … (mM) 10” for short) is 0.39 ± 0.05; the “Stress resistance parameter, pH 3.5” value is given as 0.57 ± 0.03. Moreover, in data set [3], the “Stress resistance parameter, pH 10” value is reported as 0.82 ± 0.01 and the “Stress resistance parameter, Temperature (° C.) 4” value is recorded as 0.31 ± 0.07.

B2: YK-RSV-037 (protein)
chain: QNITEEFYQSTCSAVSKGYLGALRTGWCTSVITIELSNIKENKCNGTDAKVKLIKQELDKYKNAVTDLQLLMQSTPATGSGSAIASGVCVSKVLHLEGEVNKIKSALLSTNKAVVSLSNGVSVLTFKVLDLKNYIDKQLLPILNKQSCSIPNIETVIEFQQKNNRLLEITREFSVNAGVTTPVSTYMLTNSELLSLINDMPITNDQKKLMSNNVQIVRQQSYSIMSIIKEEVLAYVVQLPLYGVIDTPCWKLHTSPLCTTNTKEGSNICLTRTDRGWYCDNAGSVSFFPQAETCKVQSNRVFCDTMNSRTLPSEVNLCNVDIFNPKYDCKIMTSKTDVSSSVITSLGAIVSCYGKTKCTASNKNRGIIKTFSNGCDYVSNKGVDTVSVGNTLYYVNKQEGQSLYVKGEPIINFYDPLVFPSDEFDASISQVNEKINQSLAFIRKSDELLHNVNAGKSTTNIMITTIIIVIIVILLSLIAVGLLLY
As to B2, in data set [1], the “RSV pre-F antibody (3C12) Epitope Φ (%) binding rate” value is reported as 79.0% and the “Φ/II (%)” value is listed as 90.9%. For the same molecule, the “RSV F antibody … (%) binding rate” value in data set [2] is 86.9%. For the same molecule, in data set [3], the “Stress resistance parameter, Osmotic pressure (mM) 3000” value is 0.21 ± 0.03; the “Stress resistance parameter, Temperature (° C.) 50” value was 0.50 ± 0.06; the “Stress resistance parameter … (mM) 10” value came out at 0.54 ± 0.11; the “Stress resistance parameter, pH 3.5” value was 0.68 ± 0.10. Moreover, in data set [3], the “Stress resistance parameter, pH 10” value came to 1.24 ± 0.11 and the “Stress resistance parameter, Temperature (° C.) 4” value turned out to be 0.27 ± 0.07.

B3: YK-RSV-045 (protein)
chain: QNITEEFYQSTCSAVSKGYLGALRTGWYTSVITIELSNIKENKCNGTDAKVKLIKQELDKYKNAVTDLQLLMQSCPATGSGSAIASGVAVSKVLHLEGEVNKIKSALLSTNKAVVSLSNGVSVLTFKVLDLKNYIDKQLLPILNKQSCSIPNIETVIEFQQKNNRLLEITREFSVNAGVTTPVSTYMLTNSELLSLINDMPITNDQKKLMSNNVQIVRQQSYSIMSIIKEEVLAYCVQLPLYGVIDTPCWKLHTSPLCTTNTKEGSNICLTRTDRGWYCDNAGSVSFFPQAETCKVQSNRVFCDTMNSRTLPSEVNLCNVDIFNPKYDCKIMTSKTDVSSSVITSLGAIVSCYGKTKCTASNKNRGIIKTFSNGCDYVSNKGVDTVSVGNTLYYVNKQEGQSLYVKGEPIINFYDPLVFPSDEFDASISQVNEKINQSLAFIRKSDELLHNVNAGKSTTNIMITTIIIVIIVILLSLIAVGLLLY
On to B3, for which, in data set [1], the “RSV pre-F antibody (3C12) Epitope Φ (%) binding rate” value is on record as 78.3% and the “Φ/II (%)” value worked out at 91.0%. For the same molecule, in data set [2], the “RSV F antibody … (%) binding rate” value was 86.0%. For the same molecule, in data set [3], the “Stress resistance parameter, Osmotic pressure (mM) 3000” value stood at 0.46 ± 0.05; the “Stress resistance parameter, Temperature (° C.) 50” value is 0.41 ± 0.03; the “Stress resistance parameter … (mM) 10” value is reported as 0.57 ± 0.09; the “Stress resistance parameter, pH 3.5” value is 0.47 ± 0.09. Also, in data set [3], the “Stress resistance parameter, pH 10” value worked out at 0.97 ± 0.07 and the “Stress resistance parameter, Temperature (° C.) 4” value worked out at 0.29 ± 0.02.

B4: YK-RSV-040 (protein)
chain: QNITEEFYQSTCSAVSKGYLGALRTGWYCSVITIELSNIKENKCNGTDAKVKLIKQELDKYKNAVTDLQLLMQSTPATGSGSAIASGVCVSKVLHLEGEVNKIKSALLSTNKAVVSLSNGVSVLTFKVLDLKNYIDKQLLPILNKQSCSIPNIETVIEFQQKNNRLLEITREFSVNAGVTTPVSTYMLTNSELLSLINDMPITNDQKKLMSNNVQIVRQQSYSIMSIIKEEVLAYVVQLPLYGVIDTPCWKLHTSPLCTTNTKEGSNICLTRTDRGWYCDNAGSVSFFPQAETCKVQSNRVFCDTMNSRTLPSEVNLCNVDIFNPKYDCKIMTSKTDVSSSVITSLGAIVSCYGKTKCTASNKNRGIIKTFSNGCDYVSNKGVDTVSVGNTLYYVNKQEGQSLYVKGEPIINFYDPLVFPSDEFDASISQVNEKINQSLAFIRKSDELLHNVNAGKSTTNIMITTIIIVIIVILLSLIAVGLLLY
On to B4, for which, in data set [1], the “RSV pre-F antibody (3C12) Epitope Φ (%) binding rate” value amounted to 84.3% and the “Φ/II (%)” value is listed as 91.6%. The “RSV F antibody … (%) binding rate” value in data set [2] was 92.0%. Also, in data set [3], the “Stress resistance parameter, Osmotic pressure (mM) 3000” value turned out to be 0.61 ± 0.09; the “Stress resistance parameter, Temperature (° C.) 50” value is given as 0.91 ± 0.14; the “Stress resistance parameter … (mM) 10” value came to 0.75 ± 0.13; the “Stress resistance parameter, pH 3.5” value stood at 0.93 ± 0.09. In addition, in data set [3], the “Stress resistance parameter, pH 10” value is 1.00 ± 0.23 and the “Stress resistance parameter, Temperature (° C.) 4” value is 0.38 ± 0.08.

B5: YK-RSV-046 (protein)
chain: QNITEEFYQSTCSAVSKGYLGALRTGWYTSVITIELSNIKENKCNGTDAKVKLIKQELDKYKNAVTDLQLLMQSTPATGSGSFCGFLLGVGSAIASGVAVSKVLHLEGEVNKIKSALLSTNKAVVSLSNGVSVLTFKVLDLKNYIDKQLLPILNKQSCSIPNIETVIEFQQKNNRLLEITREFSVNAGVTTPVSTYMLTNSELLSLINDMPITNDQKKLMSNNVQIVRQQSYSIMSIIKEEVLAYVVQLPLYGVIDTPCWKLHTSPLCTTNTKEGSNICLTRCDRGWYCDNAGSVSFFPQAETCKVQSNRVFCDTMNSRTLPSEVNLCNVDIFNPKYDCKIMTSKTDVSSSVITSLGAIVSCYGKTKCTASNKNRGIIKTFSNGCDYVSNKGVDTVSVGNTLYYVNKQEGQSLYVKGEPIINFYDPLVFPSDEFDASISQVNEKINQSLAFIRKSDELLHNVNAGKSTTNIMITTIIIVIIVILLSLIAVGLLLY
B5: in data set [1], the “RSV pre-F antibody (3C12) Epitope Φ (%) binding rate” value is 84.0% and the “Φ/II (%)” value amounted to 93.5%. Also, the “RSV F antibody … (%) binding rate” value in data set [2] amounted to 89.8%. Besides, in data set [3], the “Stress resistance parameter, Osmotic pressure (mM) 3000” value is recorded as 0.41 ± 0.02; the “Stress resistance parameter, Temperature (° C.) 50” value came out at 0.63 ± 0.03; the “Stress resistance parameter … (mM) 10” value was determined as 0.46 ± 0.14; the “Stress resistance parameter, pH 3.5” value was found to be 0.83 ± 0.04. In data set [3], the “Stress resistance parameter, pH 10” value is on record as 1.03 ± 0.03 and the “Stress resistance parameter, Temperature (° C.) 4” value amounted to 0.24 ± 0.07.

The values are drawn from patent US12514920B1, “Respiratory syncytial virus mRNA vaccine, and preparation method therefor and use thereof” (Hangzhou Tianlong Pharmaceutical Co., Ltd., priority 2024, dated 2026).
